Measurements reported in patent US20200165325A1.

Tests used:
[1] = target: HIV-1 Env of strain 1006_11_C3_1601 (HIV-1)
[2] = target: HIV-1 Env of strain X1193_c1 (HIV-1)
[3] = target: HIV-1 Env of strain 6545.v4.c1 (HIV-1)
[4] = target: HIV-1 Env of strain 6535.3 (HIV-1)
[5] = target: HIV-1 Env of strain 1056_10_TA11_1826 (HIV-1)
[6] = target: HIV-1 Env of strain R2184.c04 (HIV-1)
[7] = target: HIV-1 Env of strain 6811.v7.c18 (HIV-1)
[8] = target: HIV-1 Env of strain RHPA4259.7 (HIV-1)
[9] = target: HIV-1 Env of strain T251-18 (HIV-1)
[10] = target: HIV-1 Env of strain Du172.17 (HIV-1)
[11] = target: HIV-1 Env of strain 928-28 (HIV-1)
[12] = target: HIV-1 Env of strain HIV-16845-2.22 (HIV-1)
[13] = target: HIV-1 Env of strain X2131_C1_B5 (HIV-1)
[14] = target: HIV-1 Env of strain Q842.d12 (HIV-1)
[15] = target: HIV-1 Env of strain Du422.1 (HIV-1)
[16] = target: HIV-1 Env of strain 3415.v1.c1 (HIV-1)
[17] = target: HIV-1 Env of strain PVO.4 (HIV-1)
[18] = target: HIV-1 Env of strain 3016.v5.c45 (HIV-1)
[19] = target: HIV-1 Env of strain Ce2060_G9 (HIV-1)
[20] = target: HIV-1 Env of strain ZM53M.PB12 (HIV-1)
[21] = target: HIV-1 Env of strain 6480.v4.c25 (HIV-1)
[22] = target: HIV-1 Env of strain Du156.12 (HIV-1)
[23] = target: HIV-1 Env of strain 3817.v2.c59 (HIV-1)
[24] = target: HIV-1 Env of strain T255-34 (HIV-1)
[25] = target: HIV-1 Env of strain C3347.c11 (HIV-1)

Row | Substance | In vitro neutralization IC80 [1] [µg/mL] | In vitro neutralization IC80 [2] [µg/mL] | In vitro neutralization IC80 [3] [µg/mL] | In vitro neutralization IC80 [4] [µg/mL] | In vitro neutralization IC80 [5] [µg/mL] | In vitro neutralization IC80 [6] [µg/mL] | In vitro neutralization IC80 [7] [µg/mL] | In vitro neutralization IC80 [8] [µg/mL] | In vitro neutralization IC80 [9] [µg/mL] | In vitro neutralization IC80 [10] [µg/mL] | In vitro neutralization IC80 [11] [µg/mL] | In vitro neutralization IC80 [12] [µg/mL] | In vitro neutralization IC80 [13] [µg/mL] | In vitro neutralization IC80 [14] [µg/mL] | In vitro neutralization IC80 [15] [µg/mL] | In vitro neutralization IC80 [16] [µg/mL] | In vitro neutralization IC80 [17] [µg/mL] | In vitro neutralization IC80 [18] [µg/mL] | In vitro neutralization IC80 [19] [µg/mL] | In vitro neutralization IC80 [20] [µg/mL] | other results
1 | NIH45-46 G54F IgG (antibody) | 0.024 | 0.026 | > 50 | 0.27 | 0.283 | 0.054 | 0.063 | 0.02 | 1.38 | > 50 | 0.41 | 2.75 | 0.41 | 0.039 | > 50 | 0.029 | 0.25 | 37 | 0.085 | 0.23 | In vitro neutralization IC80 [21]: 0.046 µg/mL; In vitro neutralization IC80 [22]: 0.019 µg/mL; In vitro neutralization IC80 [23]: > 50 µg/mL; In vitro neutralization IC80 [24]: 0.198 µg/mL; In vitro neutralization IC80 [25]: 0.059 µg/mL
2 | NIH45-46 G54W IgG (antibody) | 0.008 | 0.009 | > 50 | 0.13 | 0.16 | 0.036 | 0.033 | 0.007 | 0.92 | 42.9 | 0.25 | 2.1 | 0.24 | 0.025 | > 50 | 0.023 | 0.16 | 15.4 | 0.042 | 0.16 | In vitro neutralization IC80 [21]: 0.021 µg/mL; In vitro neutralization IC80 [22]: 0.005 µg/mL; In vitro neutralization IC80 [23]: > 50 µg/mL; In vitro neutralization IC80 [24]: 0.099 µg/mL; In vitro neutralization IC80 [25]: 0.028 µg/mL
3 | NIH45-46 G54Y IgG (antibody) | 0.021 | 0.024 | > 50 | 0.24 | 0.189 | 0.045 | 0.059 | 0.02 | 1.16 | > 50 | 0.33 | 2.75 | 0.39 | 0.045 | > 50 | 0.037 | 0.18 | > 50 | 0.068 | 0.22 | In vitro neutralization IC80 [21]: 0.051 µg/mL; In vitro neutralization IC80 [22]: 0.026 µg/mL; In vitro neutralization IC80 [23]: > 50 µg/mL; In vitro neutralization IC80 [24]: 0.174 µg/mL; In vitro neutralization IC80 [25]: 0.052 µg/mL
